# ± gives the uncertainty stated by the source.
# Test: protein stability index of a GFP-peptide fusion (yeast GPS) (PSI 1-4); higher = more stable; sorted into four equal gates, so the index is relative within each strain
# How it was run: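 Tiled 17-residue peptides from yeast proteins were fused downstream of GFP on a plasmid that also expresses Cherry, and the pooled library was carried in yeast. Mid-log cultures grown in leucine-free medium were sorted into four equal gates by GFP/Cherry fluorescence ratio. Plasmids from each gate were PCR-amplified and Illumina-sequenced, and reads were assigned to strains by barcodes. Each peptide's protein stability index is the sum, over gates, of the gate's read frequency multiplied by its gate number.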
sequence,measurement,setting,value
DKGAVGPNNFIWPAEDA [MED4],protein stability index,doa10∆,3.51 ± 0.25
same,protein stability index,pdr5∆,3.43 ± 0.24
same,protein stability index,ubr1∆,3.23 ± 0.15
TSNNETNNGNDDNETEN [GRR1],protein stability index,doa10∆,3.03 ± 0.074
same,protein stability index,pdr5∆,3.28 ± 0.077
same,protein stability index,san1∆,3.14 ± 0.053
same,protein stability index,ubr1∆,2.92 ± 0.055
GDIVLTRVTRLSLQRAN [CSL4],protein stability index,doa10∆,2.14 ± 0.098
same,protein stability index,pdr5∆,1.41 ± 0.093
same,protein stability index,san1∆,1.59 ± 0.16
same,protein stability index,ubr1∆,1.32 ± 0.12
MNAILTDVKLTLPQPRL [SMD1],protein stability index,doa10∆,2.98 ± 0.079
same,protein stability index,pdr5∆,2.96 ± 0.097
same,protein stability index,san1∆,2.65 ± 0.079
same,protein stability index,ubr1∆,3.11 ± 0.076
MVKGLLKSFTESTAGSA [ECM29],protein stability index,doa10∆,3.34 ± 0.26
same,protein stability index,pdr5∆,2.97 ± 0.18
same,protein stability index,san1∆,2.81 ± 0.11
same,protein stability index,ubr1∆,3.34 ± 0.096
DPPNEGDPFDYKAQADT [RPB3],protein stability index,doa10∆,3.18 ± 0.13
same,protein stability index,pdr5∆,3.42 ± 0.12
same,protein stability index,san1∆,3.34 ± 0.12
same,protein stability index,ubr1∆,3.12 ± 0.073
SCIAVMAGLMHFKKPDI [RRP45],protein stability index,doa10∆,2.02 ± 0.062
same,protein stability index,pdr5∆,1.66 ± 0.053
same,protein stability index,san1∆,1.77 ± 0.08
same,protein stability index,ubr1∆,1.69 ± 0.035
AKQALDLYHFALNYENE [SNF2],protein stability index,doa10∆,2.47 ± 0.098
same,protein stability index,pdr5∆,2.83 ± 0.084
same,protein stability index,san1∆,2.69 ± 0.095
same,protein stability index,ubr1∆,1.83 ± 0.1
SKIIVFPRNGKAPEAEQ [RPL13A],protein stability index,doa10∆,3.19 ± 0.12
same,protein stability index,pdr5∆,3.09 ± 0.12
same,protein stability index,san1∆,3.06 ± 0.062
same,protein stability index,ubr1∆,2.98 ± 0.15
VLSALEGKSVDELITEG [RPP2A],protein stability index,pdr5∆,3.23 ± 0.15
same,protein stability index,san1∆,3.41 ± 0.073
same,protein stability index,ubr1∆,3.45 ± 0.28
YSVLLESPLSVAIQQGD [YML103C/NUP188],protein stability index,doa10∆,1.23 ± 0.091
same,protein stability index,pdr5∆,1.16 ± 0.063
same,protein stability index,san1∆,1.2 ± 0.17
same,protein stability index,ubr1∆,1.19 ± 0.077
KKIGCYMFANLEFSIYH [CSN12],protein stability index,doa10∆,2.07 ± 0.071
same,protein stability index,pdr5∆,1.95 ± 0.064
same,protein stability index,san1∆,2.98 ± 0.06
same,protein stability index,ubr1∆,2.51 ± 0.052
SQPTNSTTTSLHVPNLQ [SMC4],protein stability index,doa10∆,1.99 ± 0.043
same,protein stability index,pdr5∆,2.4 ± 0.035
same,protein stability index,san1∆,2.21 ± 0.052
same,protein stability index,ubr1∆,2.03 ± 0.027
DYPSTSLDIRHDFIKGL [NUT1],protein stability index,doa10∆,2.9 ± 0.14
same,protein stability index,pdr5∆,2.88 ± 0.076
same,protein stability index,san1∆,3.14 ± 0.057
same,protein stability index,ubr1∆,2.56 ± 0.062
EDTLSGYDPIVSTRAID [PRP28],protein stability index,doa10∆,2.51 ± 0.2
same,protein stability index,pdr5∆,2.67 ± 0.12
same,protein stability index,san1∆,3.13 ± 0.15
same,protein stability index,ubr1∆,3.16 ± 0.093
DNVNSTTGSIFEKDLMA [BRN1],protein stability index,doa10∆,2.98 ± 0.067
same,protein stability index,pdr5∆,3.01 ± 0.068
same,protein stability index,san1∆,3.07 ± 0.071
same,protein stability index,ubr1∆,2.99 ± 0.041
SELAPIEEHPTVVDAID [IRR1],protein stability index,pdr5∆,3.62 ± 0.19
same,protein stability index,san1∆,3.25 ± 0.11
same,protein stability index,ubr1∆,3.05 ± 0.071
EEDISDLWNNFGNIMDN [RRP6],protein stability index,doa10∆,3.13 ± 0.078
same,protein stability index,pdr5∆,2.98 ± 0.071
same,protein stability index,san1∆,3.02 ± 0.052
same,protein stability index,ubr1∆,3.02 ± 0.1
EEGETSRPLKKVKILEQ [SWI3],protein stability index,doa10∆,3.01 ± 0.11
same,protein stability index,pdr5∆,3.28 ± 0.092
same,protein stability index,san1∆,2.86 ± 0.08
same,protein stability index,ubr1∆,3.03 ± 0.053
GSTGGLGASFGQQQQQS [YGL172W/NUP49],protein stability index,doa10∆,2.76 ± 0.2
same,protein stability index,pdr5∆,2.81 ± 0.076
same,protein stability index,san1∆,2.12 ± 0.12
same,protein stability index,ubr1∆,3.1 ± 0.1
KDGSNPRTLIGHRATVT [RPN14],protein stability index,pdr5∆,3.31 ± 0.26
same,protein stability index,san1∆,3.07 ± 0.14
NSASSAPTPAAPGASVP [SWI1],protein stability index,doa10∆,3.04 ± 0.063
same,protein stability index,pdr5∆,3.16 ± 0.056
same,protein stability index,san1∆,3.21 ± 0.057
same,protein stability index,ubr1∆,3.03 ± 0.055
DRFPLKLREPVARFLHF [ITC1],protein stability index,doa10∆,1.69 ± 0.076
same,protein stability index,pdr5∆,1.7 ± 0.067
same,protein stability index,san1∆,1.79 ± 0.12
same,protein stability index,ubr1∆,1.91 ± 0.046
RIATEASKLAAYNKKST [HTB1],protein stability index,doa10∆,3.21 ± 0.097
same,protein stability index,pdr5∆,2.47 ± 0.24
same,protein stability index,ubr1∆,2.94 ± 0.098
TITTILILGLNTSIAQF [YML103C/NUP188],protein stability index,doa10∆,1.83 ± 0.039
same,protein stability index,pdr5∆,1.67 ± 0.045
same,protein stability index,san1∆,2.32 ± 0.076
same,protein stability index,ubr1∆,2.28 ± 0.04
ERVRNFAVIYLCDIDEV [DIB1],protein stability index,doa10∆,1.26 ± 0.13
same,protein stability index,pdr5∆,1.22 ± 0.093
same,protein stability index,san1∆,1.04 ± 0.26
same,protein stability index,ubr1∆,1.36 ± 0.088
NGVNVQIDQLNRLLPNL [GRR1],protein stability index,doa10∆,2.86 ± 0.044
same,protein stability index,pdr5∆,3.07 ± 0.05
same,protein stability index,san1∆,2.88 ± 0.039
same,protein stability index,ubr1∆,2.91 ± 0.04
FIANEGVHTGQFIYAGK [RPL2A],protein stability index,doa10∆,2.98 ± 0.22
same,protein stability index,pdr5∆,2.44 ± 0.17
same,protein stability index,san1∆,2.04 ± 0.27
MEELGIVTPVEKAVEEK [RPT3],protein stability index,pdr5∆,1.11 ± 0.094
same,protein stability index,ubr1∆,1.47 ± 0.17
QRKEIKDRISSCSSKEK [SMC4],protein stability index,doa10∆,2.28 ± 0.1
same,protein stability index,pdr5∆,2.7 ± 0.063
same,protein stability index,san1∆,2.49 ± 0.12
same,protein stability index,ubr1∆,2.89 ± 0.09
DVTPADDLKQKKEELVE [RPO31],protein stability index,doa10∆,3.12 ± 0.16
same,protein stability index,pdr5∆,3.25 ± 0.093
same,protein stability index,san1∆,3.08 ± 0.15
same,protein stability index,ubr1∆,3.24 ± 0.12
NSSNYFGELQFAFLNAM [AAR2],protein stability index,doa10∆,2.86 ± 0.088
same,protein stability index,pdr5∆,2.94 ± 0.071
same,protein stability index,san1∆,2.69 ± 0.071
same,protein stability index,ubr1∆,2.89 ± 0.054
ESQYPIVTEQPSAEIRE [SWP82],protein stability index,doa10∆,2.56 ± 0.04
same,protein stability index,pdr5∆,2.73 ± 0.042
same,protein stability index,san1∆,2.57 ± 0.047
same,protein stability index,ubr1∆,2.56 ± 0.039
DSEGSIKQTSDESTIKR [ECM29],protein stability index,doa10∆,3.43 ± 0.11
same,protein stability index,pdr5∆,3.56 ± 0.085
same,protein stability index,san1∆,3.43 ± 0.068
same,protein stability index,ubr1∆,3.41 ± 0.063
EDILYYSTCPSETDLND [SRB8],protein stability index,doa10∆,2.29 ± 0.12
same,protein stability index,pdr5∆,1.56 ± 0.099
same,protein stability index,san1∆,2.14 ± 0.11
same,protein stability index,ubr1∆,1.92 ± 0.1
LEQVEFEKNTILQQRSK [MED4],protein stability index,doa10∆,2.94 ± 0.22
same,protein stability index,pdr5∆,3.44 ± 0.13
same,protein stability index,san1∆,2.77 ± 0.11
same,protein stability index,ubr1∆,3.27 ± 0.1
PPEEFSNTIDELSTDII [SRB7],protein stability index,doa10∆,3.1 ± 0.057
same,protein stability index,pdr5∆,3.16 ± 0.068
same,protein stability index,san1∆,3.26 ± 0.069
same,protein stability index,ubr1∆,3.05 ± 0.06
ARIFEFPKTTVAALRFT [RPL18A],protein stability index,doa10∆,1.94 ± 0.11
same,protein stability index,pdr5∆,1.67 ± 0.076
same,protein stability index,san1∆,2 ± 0.19
same,protein stability index,ubr1∆,1.79 ± 0.098
ETHETNISNAKLANFFS [YAR002W/NUP60],protein stability index,doa10∆,3.03 ± 0.12
same,protein stability index,pdr5∆,3.15 ± 0.11
same,protein stability index,san1∆,3.15 ± 0.073
same,protein stability index,ubr1∆,3.2 ± 0.13
KKENLTRDETVSLIKKY [YML103C/NUP188],protein stability index,doa10∆,2.82 ± 0.065
same,protein stability index,pdr5∆,2.83 ± 0.1
same,protein stability index,san1∆,2.55 ± 0.096
same,protein stability index,ubr1∆,2.6 ± 0.078
ELFDILSTSEDVSIEEL [IRR1],protein stability index,doa10∆,2.66 ± 0.17
same,protein stability index,pdr5∆,2.15 ± 0.2
same,protein stability index,san1∆,2.6 ± 0.21
same,protein stability index,ubr1∆,2 ± 0.13
LLTVEEGQLKPGDGSSY [RPC25],protein stability index,doa10∆,3.43 ± 0.15
same,protein stability index,pdr5∆,3.23 ± 0.24
same,protein stability index,san1∆,2.83 ± 0.18
same,protein stability index,ubr1∆,3.27 ± 0.14
YYNEISRDLDISSSTQC [POP6],protein stability index,doa10∆,1.95 ± 0.091
same,protein stability index,pdr5∆,2.56 ± 0.073
same,protein stability index,san1∆,2.25 ± 0.093
same,protein stability index,ubr1∆,2.3 ± 0.043
KPFLKKTQEYYTQYTND [CDC53],protein stability index,doa10∆,3.02 ± 0.061
same,protein stability index,pdr5∆,3.12 ± 0.053
same,protein stability index,san1∆,3.07 ± 0.044
same,protein stability index,ubr1∆,3.01 ± 0.046
KVYAQLLESYKTLSLKS [RPN7],protein stability index,doa10∆,2.04 ± 0.062
same,protein stability index,pdr5∆,2.56 ± 0.085
same,protein stability index,san1∆,2 ± 0.11
same,protein stability index,ubr1∆,1.32 ± 0.03
LEDQQRQQKLLLETKLR [SWI1],protein stability index,doa10∆,2.81 ± 0.12
same,protein stability index,pdr5∆,2.65 ± 0.14
same,protein stability index,san1∆,3.12 ± 0.083
same,protein stability index,ubr1∆,2.31 ± 0.17
SMSLQSKNLGEINTALN [SWI1],protein stability index,doa10∆,2.81 ± 0.12
same,protein stability index,pdr5∆,2.9 ± 0.1
same,protein stability index,ubr1∆,3.08 ± 0.12
KVKHDSQPFIKFLNFRP [SSN2],protein stability index,doa10∆,2.88 ± 0.06
same,protein stability index,pdr5∆,2.6 ± 0.063
same,protein stability index,san1∆,2.49 ± 0.079
same,protein stability index,ubr1∆,2.63 ± 0.041
